Laboratory results as given in patent US9546211B2 (SINGH MOLECULAR MEDICINE, LLC, priority 2014, dated 2017).
Several values for one entry are separate records, joined by “and”; a condition that tells them apart may be missing. Equal entries are not always repeated.

What was measured:
TNF-alpha = TNF-alpha (Homo sapiens, UniProt P01375); experiment: Inhibition of TNF-alpha cytotoxicity against U937 cells; format: cell-based; settings: constant dose of TNF-alpha at EC50
MDA-MB-231 cells = experiment: MTT proliferation assay, MDA-MB-231; format: cell-based, human; settings: for Mean Absorbance (570 nM) ± S.E., Overall Mean: 4 experiments;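 as to all read-outs here: human cancer cells grown to 90% confluence before treatment, treated groups compared against a vehicle control group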
PANC-1 cells = experiment: MTT proliferation assay, PANC-1; format: cell-based, human; settings: for Mean Absorbance (570 nM) ± S.E., Overall Mean: 3 experiments; for Mean Absorbance (570 nM) ± S.E.: single experiments
[1] = MDA-MB-231, day 3, 10.0 μg/ml, single experiments
[2] = MDA-MB-231, day 3, 100 μg/ml, single experiments
[3] = MDA-MB-231, day 3 post treatment, 0.5 μg/ml

TNF-alpha, sequence (P01375 77-233 limits assumed): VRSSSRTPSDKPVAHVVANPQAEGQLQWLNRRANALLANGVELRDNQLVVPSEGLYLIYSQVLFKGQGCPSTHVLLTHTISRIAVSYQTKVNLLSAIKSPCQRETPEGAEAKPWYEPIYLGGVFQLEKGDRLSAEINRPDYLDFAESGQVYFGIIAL

B1: anti-TNF-alpha VHH62: anti-TNF-alpha sdAb, SEQ ID NO. 47 (TNF_62, SEQ ID NO. 66) (protein)
VHH: QVQLVESGGGPVQAGETLRLSCTASGFTFAEADMGWYRQAPGHECELVSTITTEGITSEASSYYADSVRGRFTISRDNAKNMVYLQMNSLKPEDTAVYYCAPDPYAYSTYSDYCSWAQGTQGTLVTVSS
modifications: Camelid
- inhibition of killing of U937 by TNF-alpha (TNF-alpha): inhibit killing

B2: anti-TNF-alpha VHH69: anti-TNF-alpha sdAb, SEQ ID NO. 46 (TNF_69, SEQ ID NO. 64) (protein)
VHH: EVQLVESGGGSVLAGGSLRLSCVASGFTSRYNYMAWFRQAPGKEREGVATIGTASGSADYYGSVKDRFTISQDNAKNTVYLQMNSLKPEDTAMYYCAARTYGTISLTPSDYRYWGQGTLVTVSS
modifications: Camelid
- inhibition of killing of U937 by TNF-alpha (TNF-alpha): inhibit killing

B3: B.VHH14: anti-STAT3 single-domain antibody VHH14, SEQ ID NO. 4, bacterial production (protein)
VHH: QVQLVESGGGSVQAGGSLRLSCVASTYTGCMGWFRQAPGKEREGVAALSSRGFAGHYTDSVKGRFSISRDYVKNAVYLQMNTVKPEDAAMYYCAAREGWECGETWLDRTAGGHTYWGQGTLVTVSS
modifications: Camelid
notes: 4, bacterial production
- % Inhibition (MDA-MB-231 cells; MDA-MB-231, 3 days, 10.0 μg/ml, single experiments): 23.1% and 20.0% and 38.5% and 23.3%
- % Inhibition (MDA-MB-231 cells; MDA-MB-231, 3 days, 100 μg/ml, single experiments): 57.0% and 42.8% and 62.3% and 60.6%
- % Inhibition (MDA-MB-231 cells; MDA-MB-231, 5 days, 0.5 μg/ml): 0%
- % Inhibition (MDA-MB-231 cells; MDA-MB-231, 5 days, 1.0 μg/ml): 0%
- Mean Absorbance (570 nM) ± S.E., Overall Mean (MDA-MB-231 cells; MDA-MB-231, day 3, 10.0 μg/ml): 0.504 ± 0.021
- Mean Absorbance (570 nM) ± S.E. (MDA-MB-231 cells; [1]): 0.456 ± 0.048 and 0.499 ± 0.018 and 0.502 ± 0.048 and 0.559 ± 0.041
- Mean Absorbance (570 nM) ± S.E., Overall Mean (MDA-MB-231 cells; MDA-MB-231, day 3, 100 μg/ml): 0.302 ± 0.043
- Mean Absorbance (570 nM) ± S.E. (MDA-MB-231 cells; [2]): 0.255 ± 0.005 and 0.357 ± 0.019 and 0.308 ± 0.021 and 0.287 ± 0.021
- Mean Absorbance (570 nM) ± S.E. (MDA-MB-231 cells; [3]): 0.666 ± 0.022
- Mean Absorbance (570 nM) ± S.E., Overall Mean (MDA-MB-231 cells; MDA-MB-231, day 5, 10.0 μg/ml): 0.688 ± 0.131
- Mean Absorbance (570 nM) ± S.E., Overall Mean (MDA-MB-231 cells; MDA-MB-231, day 5, 100 μg/ml): 0.475 ± 0.0690

B4: H.VHH14: anti-STAT3 sdAb VHH14, SEQ ID NO. 4; H. not defined, presumably mammalian production (protein)
VHH: B3 VHH
modifications: Camelid
- % Inhibition (MDA-MB-231 cells; MDA-MB-231, 5 days, 0.5 μg/ml): 9.5%
- % Inhibition (MDA-MB-231 cells; MDA-MB-231, 5 days, 1.0 μg/ml): 4.9%
- % Inhibition (MDA-MB-231 cells; MDA-MB-231, 5 days, 10.0 μg/ml, single experiments): 18.2%
- % Inhibition (MDA-MB-231 cells; MDA-MB-231, 5 days, 100 μg/ml, single experiments): 18.9%
- Mean Absorbance (570 nM) ± S.E. (MDA-MB-231 cells; [1]): 0.588 ± 0.020
- Mean Absorbance (570 nM) ± S.E. (MDA-MB-231 cells; [2]): 0.416 ± 0.030
- Mean Absorbance (570 nM) ± S.E. (MDA-MB-231 cells; [3]): 0.485 ± 0.040
- Mean Absorbance (570 nM) ± S.E. (MDA-MB-231 cells; MDA-MB-231, day 5, 10.0 μg/ml, single experiments): 0.804 ± 0.015
- Mean Absorbance (570 nM) ± S.E. (MDA-MB-231 cells; MDA-MB-231, day 5, 100 μg/ml, single experiments): 0.797 ± 0.010
- Mean Absorbance (570 nM) ± S.E., Overall Mean (PANC-1 cells; PANC-1, day 3, 10.0 μg/ml): 1.089 ± 0.085
- Mean Absorbance (570 nM) ± S.E. (PANC-1 cells; PANC-1, day 3, 10.0 μg/ml): 0.920 ± 0.133 and 1.183 ± 0.114 and 1.163 ± 0.044
- Mean Absorbance (570 nM) ± S.E., Overall Mean (PANC-1 cells; PANC-1, day 3, 100 μg/ml): 0.906 ± 0.054
- Mean Absorbance (570 nM) ± S.E. (PANC-1 cells; PANC-1, day 3, 100 μg/ml): 0.808 ± 0.239 and 0.993 ± 0.088 and 0.916 ± 0.088
- Mean Absorbance (570 nM) ± S.E., Overall Mean (PANC-1 cells; PANC-1, day 5, 10.0 μg/ml): 1.368 ± 0.247
- Mean Absorbance (570 nM) ± S.E. (PANC-1 cells; PANC-1, day 5, 10.0 μg/ml): 1.859 ± 0.033 and 1.165 ± 0.015 and 1.081 ± 0.103
- Mean Absorbance (570 nM) ± S.E., Overall Mean (PANC-1 cells; PANC-1, day 5, 100 μg/ml): 0.754 ± 0.333
